Source: patent US20250296959A1, “B7-H3 TARGETING PEPTIDES AND CONSTRUCTS THEREOF” (Mariana Oncology Inc., priority 2024, published 2025)
Read-outs that look alike come from different tables or passages of the source. Starred links: 1 amine or outer side, 2 acyl side, 3 side chain; linkers in the order of their positions; H or OH if unused. Positions of bridges follow the written chain, without caps; N, C: chain ends. Non-standard residues stand in square brackets, D forms with d. Residues, ends and D or L forms follow the SMILES beside them. Groups on a side chain read outwards from the residue. Primed or numbered codes have the meaning given here. *: point of attachment. R‑DOTAGA = O=C(O)CN1CCN(CC(=O)O)CCN([C@H](CCC(=O)*)C(=O)O)CCN(CC(=O)O)CC1; X2 = O=C(O)CN1CCN(CC(=O)O)CCN(CC(=O)NCCOCCOCCOCCOCC(=O)*)CCN(CC(=O)O)CC1; Ala(piperidin-4-yl) = O=C([C@H](CC1CCN([*:3])CC1)N[*:1])[*:2]; DOTA = O=C(O)CN1CCN(CC(=O)O)CCN(CC(=O)*)CCN(CC(=O)O)CC1; PipAla = piperidinyl-alanine residue (as named); Trp(5-F) = N[C@@H](Cc1c[nH]c2ccc(F)cc12)C(=O)O; hydroxyVal = hydroxy-valine residue (as named); PEG4′ = 4x 3-(2-aminoethoxy)propanoic acid; hCba = O=C([C@H](CCC1CCC1)N[*:1])[*:2]; γGlu = O=C(O)[C@H](CCC(=O)[*:2])N[*:1]; 1Nal = N[C@@H](Cc1cccc2ccccc12)C(=O)O; Ala(4-THP) = N[C@@H](CC1CCOCC1)C(=O)O; Pip(CH2CO2H)Ala = not defined here; Val(3-OH) = CC(C)(O)[C@H](N)C(=O)O; hCha = N[C@@H](CCC1CCCCC1)C(=O)O; Tle = CC(C)(C)[C@H](N)C(=O)O; hLeu = CC(C)CC[C@H](N)C(=O)O; Dab = NCC[C@H](N)C(=O)O; Ms = CS(=O)(=O)*; Sar = CNCC(=O)O

Experiments:
[1] = target: T1, human 4lg B7-H3 (Homo sapiens, UniProt Q5ZPR3); assay: Affinity determination by surface plasmon resonance (SPR) to 4Ig B7-H3; details: 4Ig B7-H3
T1 sequence (Q5ZPR3 29-534): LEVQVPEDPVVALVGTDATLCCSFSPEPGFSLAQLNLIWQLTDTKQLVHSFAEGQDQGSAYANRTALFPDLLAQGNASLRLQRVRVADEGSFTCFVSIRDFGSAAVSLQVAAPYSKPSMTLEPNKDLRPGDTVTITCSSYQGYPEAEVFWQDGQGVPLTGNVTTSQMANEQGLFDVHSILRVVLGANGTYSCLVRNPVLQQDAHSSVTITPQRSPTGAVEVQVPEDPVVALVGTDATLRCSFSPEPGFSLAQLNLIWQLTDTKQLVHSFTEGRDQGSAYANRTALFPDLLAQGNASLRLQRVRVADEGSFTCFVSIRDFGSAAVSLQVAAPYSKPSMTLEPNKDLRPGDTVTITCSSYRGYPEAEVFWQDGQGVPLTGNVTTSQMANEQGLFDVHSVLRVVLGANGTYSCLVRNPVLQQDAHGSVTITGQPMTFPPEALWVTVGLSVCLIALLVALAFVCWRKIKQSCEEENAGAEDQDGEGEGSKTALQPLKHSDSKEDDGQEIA

[2] = test system: Calu-6 cell line; assay: Net internalization of [177Lu]Lu-labeled peptide in Calu-6 cells; format: cell-based, Human; details: 1 hour, 37° C., glycine pH 2.5 acid wash
Procedure, shortened: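 Calu-6 cells, human non-engineered lung cancer expressing B7-H3, resuspended in 1% PBSA at 5 million cells/mL and incubated with the 177Lu-labeled conjugate (labeled at 80 °C, pH ~5, RP-HPLC checked). Gamma counting of the bound fraction, then of the pellet after two glycine pH 2.5 acid strips and NaOH lysis, gives internalized activity.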

[3] = test system: Calu-6 cell line; assay: Cell associated (bound) fraction of [177Lu]Lu-labeled peptide in Calu-6 cells; format: cell-based, Human; details: 1 hour, 37° C.
Procedure, shortened: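 Detached B7-H3-expressing human lung cancer cells at 5 million/mL were exposed for 1 hour at 37 °C to 0.8 μCi of the 177Lu-labelled peptide, which was formulated in 1% PBSA after labelling at 80 °C, pH ~5. Supernatant and two cold washes counted as unbound, and resuspended cells gamma-counted as the cell-associated fraction.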

[4] = target: B7-H3 on Calu-6 cells (human) (UniProt Q5ZPR3); assay: 177Lu-labelled peptide on Calu-6 cells, % cell associated fraction; B = 25<%<=50

Molecule | % cell associated fraction [4] | also measured
CC(=O)N[C@@H](CCC(C)C)C(=O)N[C@@H](Cc1ccc(O)cc1)C(=O)N[C@H]1CSSC[C@@H](C(=O)N[C@@H](Cc2c[nH]c3ccc(F)cc23)C(=O)N[C@@H](Cc2ccccc2)C(=O)N[C@H](C(=O)N[C@H](CCCCNC(=O)[C@@H](CCC(=O)O)NC(=O)CN2CCN(CC(=O)O)CCN(CC(=O)O)CCN(CC(=O)O)CC2)C(=O)O)C(C)(C)O)NC(=O)[C@H](Cc2ccc(O)cc2)NC(=O)[C@H](C(C)C)NC(=O)[C@H](CC(=O)O)NC(=O)[C@H](CC2CCOCC2)NC(=O)[C@H](CC2CCNCC2)NC(=O)CNC(=O)[C@H](C(C)(C)C)NC1=O [compound 429, Ac-hLeu-Y-C-Tbg-G-PipAla-ThpA-D-V-Y-C-5FW-F-hydroxyVal-dLys(dGlu-DOTA)-COOH] (Ac-[hLeu]YC[Tle]G[Ala(piperidin-4-yl)][Ala(4-THP)]DVYC[Trp(5-F)]F[Val(3-OH)][dK]([dE-DOTA])-OH; disulfide 3-11) | – | Kd ([1]; read-out: SPR KD—37° C., 37° C. flow cell temperature): < 1 nM; % net internalization [2]: A (%≤25); % cell associated fraction [3]: B (25<%≤50)
CC[C@H](C)[C@@H]1NC(=O)[C@@H](NC(=O)[C@H](Cc2ccc(O)cc2)NC(=O)[C@H](CCC(C)C)NC(C)=O)CSSC[C@@H](C(=O)N[C@@H](Cc2c[nH]c3ccc(F)cc23)C(=O)N[C@@H](Cc2ccccc2)C(=O)N[C@H](C(=O)N[C@H](CCCCNC(=O)COCCOCCOCCOCCNC(=O)CN2CCN(CC(=O)O)CCN(CC(=O)O)CCN(CC(=O)O)CC2)C(=O)O)C(C)(C)O)NC(=O)[C@H](Cc2ccc(O)cc2)NC(=O)[C@H](C(C)C)NC(=O)[C@H](CC(=O)O)NC(=O)[C@H](CC2CCOCC2)NC(=O)[C@H](CCCCN)NC(=O)CNC1=O [compound 308, Ac-hLeu-Y-C-Ile-G-K-ThpA-D-V-Y-C-5FW-F-hydroxyVal-dLys(PEG4-DOTA)-COOH] (Ac-[hLeu]YCIGK[Ala(4-THP)]DVYC[Trp(5-F)]F[Val(3-OH)][dK](X2)-OH; disulfide 3-11) | – | Kd ([1]; SPR KD—25° C., 25° C. flow cell temperature): < 1 nM; % net internalization [2]: B (25<%≤50); % cell associated fraction [3]: C (%>50)
Ac-[hLeu]YC[Tle]GK[Pip(PEG4-DOTA)Ala]DVYC[Trp(5-F)]F[Val(3-OH)]-NH2 (disulfide 3-11 (inferred)) [Cpd 383] | 25 to 50% | –
Ac-[hLeu]YC[Tle]GK[Ala(4-THP)]DVYC[Trp(5-F)]F[Val(3-OH)][dK](DOTA)-NH2 (disulfide 3-11 (inferred)) [Cpd 366] | 25 to 50% | –
Ac-[hCha]YC[Tle]GK[Ala(4-THP)]DVYC[Trp(5-F)]F[Val(3-OH)][dK](DOTA)-OH (disulfide 3-11 (inferred)) [Cpd 368] | 25 to 50% | –
Ac-[hLeu]YCIG[Pip(CH2CO2H)Ala][Ala(4-THP)]DVYC[Trp(5-F)]F[Val(3-OH)][dK](DOTA)-OH (disulfide 3-11 (inferred); reading uncertain; also: printed as Ac-hLeu-Y-C-Ile-G-[Pip(CH2CO2H)Ala]-ThpA-D-V-Y-C-5FW-F-hydroxyVal-dLys(DOTA)-COOH; disulfide) [Cpd 318] | 25 to 50% | –
Ac-[hLeu]YC[Tle]G[PipAla][Ala(4-THP)]DVYCXF[hydroxyVal][dK]([dE-DOTA])-OH (disulfide 3-11 (inferred); not fully specified (residue 12); printed as Ac-hLeu-Y-C-Tbg-G-PipAla-ThpA-D-V-Y-C-5FW-F-hydroxyVal-dLys(dGlu-DOTA)-COOH, disulfide) [Cpd 429] | 25 to 50% | –
Ac-[hLeu]YC[Tle][Sar]K[Ala(4-THP)]DVYC[Trp(5-F)]F[Val(3-OH)][dK](DOTA)-OH (disulfide 3-11 (inferred)) [Cpd 348] | 25 to 50% | –
Ms-[hLeu]YC[Tle]G[PipAla][Ala(4-THP)]DVYCXF[hydroxyVal][dK](DOTA)-OH (disulfide 3-11 (inferred); not fully specified (residue 12); printed as MeSO2-hLeu-Y-C-Tbg-G-PipAla-ThpA-D-V-Y-C-5FW-F-hydroxyVal-dLys(DOTA)-COOH, disulfide) [Cpd 437] | 25 to 50% | –
Ac-[hLeu]YC[Tle]G[PipAla][Ala(4-THP)]DVYC[1Nal]F[hydroxyVal][dK](DOTA)-OH (disulfide 3-11 (inferred)) [Cpd 436] | 25 to 50% | –
Ac-[hLeu]YC[Tle]G[Dab][Ala(4-THP)]DVYC[Trp(5-F)]F[Val(3-OH)][dK](DOTA)-OH (disulfide 3-11 (inferred)) [Cpd 371] | 25 to 50% | –
Ac-[hLeu]YC[Tle]G[PipAla][Ala(4-THP)]DVYC[Trp(5-F)]F[hydroxyVal][dK]([PEG4′-DOTA])-OH (disulfide 3-11 (inferred)) [Cpd 465] | 25 to 50% | –
Ac-[hLeu]YC[Tle]G[PipAla][Ala(4-THP)]DVYCXF[hydroxyVal][dK]([Glu-DOTA])-OH (disulfide 3-11 (inferred); not fully specified (residue 12); printed as Ac-hLeu-Y-C-Tbg-G-PipAla-ThpA-D-V-Y-C-5FW-F-hydroxyVal-dLys(Glu-DOTA)-COOH, disulfide) [Cpd 428] | 25 to 50% | –
Ac-[hLeu]YC[Tle]G[PipAla][Ala(4-THP)]DVYCXF[hydroxyVal][dK](R‑DOTAGA)-OH (disulfide 3-11 (inferred); not fully specified (residue 12); printed as Ac-hLeu-Y-C-Tbg-G-PipAla-ThpA-D-V-Y-C-5FW-F-hydroxyVal-dLys(R-DOTAGA)-COOH, disulfide) [Cpd 438] | 25 to 50% | –
Ac-[hCba]YC[Tle]GK[Ala(4-THP)]DVYC[Trp(5-F)]F[Val(3-OH)][dK](DOTA)-OH (disulfide 3-11 (inferred)) [Cpd 398] | 25 to 50% | –
Ac-[hLeu]YC[Tle]G[PipAla][Ala(4-THP)]DVYCXF[hydroxyVal][dK]([γGlu-DOTA])-OH (disulfide 3-11 (inferred); not fully specified (residue 12); printed as Ac-hLeu-Y-C-Tbg-G-PipAla-ThpA-D-V-Y-C-5FW-F-hydroxyVal-dLys(gGlu-DOTA)-COOH, disulfide) [Cpd 440] | 25 to 50% | –
Ac-[hLeu]YC[Tle]GK(DOTA)[Ala(4-THP)]DVYC[Trp(5-F)]F[Val(3-OH)]-NH2 (disulfide 3-11 (inferred)) [Cpd 338] | 25 to 50% | –
